Test results: the supplement of paper PMC11780869

Test system: Bacillus subtilis
Assay: cleaved RNA product abundance (RNA/gDNA barcode ratio) relative to median wild-type variant (ratio to wild type); higher = more accumulation of the downstream cleavage product
In short: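 Reporter mRNAs based on truncated aprE or tetM carried barcoded, mutagenized RNase Y cleavage-site windows built from oligos with a 9% error rate and were integrated into the B. subtilis chromosome. Cultures grew in LB at 37°C from OD600 0.0003 to 0.3. Cleaved RNA was gel-selected, reverse transcribed and barcode-sequenced together with genomic DNA barcodes, and UMIs were collapsed. Cleaved product abundance is the per-construct ratio of RNA to gDNA barcodes, scaled to the median of constructs carrying the unmutated site.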

[1] = experiment (reporter, strain, medium): exp 8a: truncated aprE reporter, strain BJT201 with 2% xylose (RNase J1 expressed), cleavage site: glnRA (positions -5 to +31 mutated)
[2] = experiment (reporter, strain, medium): exp 4a: truncated aprE reporter, strain BJT201 with 2% xylose (RNase J1 expressed), cleavage site: cggR-gapA (positions -7 to +36 mutated)
[3] = experiment (reporter, strain, medium): exp 2b: truncated aprE reporter, strain BJT200, cleavage site: cggR-gapA (positions -7 to +36 mutated)
[4] = experiment (reporter, strain, medium): exp 6: tetM reporter, strain 168, cleavage site: cggR-gapA (positions -7 to +36 mutated)

In the case of “CGACATGTCCCGCTTCTTTCATTAATCCGTTAGAAACTGTTTTGCTATACACATTTACCTTTTAAGAGGAGGAAT”, the “cleaved RNA product abundance” value [1] is reported as 0.253.

“ACAGACGAAGGAGCCGCAAAGAAGTTATTAAGGGATGAATAATCCGTCAATATAATTATCTCTCACTTATTTAAA” was tested, and the “cleaved RNA product abundance” value [2] was 0.119.

For “ACAGACGAAGGAGCCGCAACGAAGTTATTAAGGGATGAATAATCCCTCAATATACATATCTCTCACTTATTTAAA”, the “cleaved RNA product abundance” value [2] was 0.706.

“ACAGACGAAGGAGCCGCAAAGAAGTTATTAAGGGATGAAAAATCGCTCAATATAAATATCTCTCACTTATTTAAA” was tested, and the “cleaved RNA product abundance” value [2] was 0.0823.

“ACAGACGAAGGAGCCGCAAAGAAGTTATTAAGGGATTAATAATCCCTCAATATAAATCTCTCTCACTTATTTAAA” was tested, and the “cleaved RNA product abundance” value [2] was 0.637.

In the case of “ACAGACGAAGGAGCCGCAAAGAAGTTATTAAGGGATGAATAATCCGTCAATATAAATATCTCTCACTTATTTAAA”, the “cleaved RNA product abundance” value [3] is reported as 0.167, the “cleaved RNA product abundance” value [2] is reported as 0.234 and the “cleaved RNA product abundance” value [4] is reported as 0.247.

In the case of “ACAGACGAAGGAGCCGCAAAGAATTTATTAAGGGACGAATAATCCCTCAATATAAATATCTCTCACTTATTTAAA”, the “cleaved RNA product abundance” value [3] is reported as 0.463 and the “cleaved RNA product abundance” value [2] is reported as 0.605.

For “ACAGACGAAGGAGCCGCAAAGAAGTTATTAAGCGATGAATAATACCTCAATATAAATATCTCTCACTTATTTAAA”, the “cleaved RNA product abundance” value [3] was 0.0864 and the “cleaved RNA product abundance” value [2] was 0.127.

“CGACATGTCCCGCTTCTTTCATTATTCCGTTAGCAACTGTTCTGCTATATACATTTACCTTTTAAGAGGAGGAAT” was tested, and the “cleaved RNA product abundance” value [1] was 0.551.

In the case of “ACAGACGAAGGAGCCGCAAAGTAGTTATTAAGGGATGAATAATCCCTCAATGTAAATATCTCTCACTTATTTAAA”, the “cleaved RNA product abundance” value [2] is reported as 0.13.

With “ACAGACGAAGGAGCCGCAAAGAAGTTATTAAGGGATGAATAATCCCTCATTTTAAATATCTCTCACTTATTTAAA” the “cleaved RNA product abundance” value [2] was 0.191.

In the case of “ACAGACGAAGGAGCCGCAAAGAAGATATTAAGGGATGTATAATCCCTCAATATAAATATCTCTCACTTATTTAAA”, the “cleaved RNA product abundance” value [2] is reported as 0.603.

In the case of “ACAGACGAAGGAGCCGCAAAGAAGTTATTAAGGGATGGATAATCCCTCGATATAAATATCTCTCACTTATTTAAA”, the “cleaved RNA product abundance” value [2] is reported as 0.235.

In the case of “ACAGACGAAGGAGCCGCAAAGAGGTTATTAAAGGATGAATAATCCCTCAATATAAATATCTCTCACTTATTTAAA”, the “cleaved RNA product abundance” value [3] is reported as 0.166.

In the case of “CGACATGTCCCGCTTCTTTCATTACTCCGTTAGCAACTGTTTTGATATATACATTTACCTTTTAAGAGGAGGAAT”, the “cleaved RNA product abundance” value [1] is reported as 0.587.

In the case of “ACAGACGAAGGAGCCGCAAAGAAGTTCTTAAGGGATGAATATTCCCTCAATATAAATATCTCTCACTTATTTAAA”, the “cleaved RNA product abundance” value [2] is reported as 0.245.

In the case of “CGACATGTCCCGCTTCTTTCATTAATCCGTCAGCAACTGTTTTGCTATATACATTAACCTTTTAAGAGGAGGAAT”, the “cleaved RNA product abundance” value [1] is reported as 0.528.

“CGACATGTCCCGCTTCTTTCATTAATCCGTTAGCAACTGTTTTACGATATACATTTACCTTTTAAGAGGAGGAAT” was tested, and the “cleaved RNA product abundance” value [1] was 0.559.

In the case of “ACAGACGAAGGAGCCGCACAGAAGTTATTAAGGGATGAATAATCCCTGAATATAAATATCTCTCACTTATTTAAA”, the “cleaved RNA product abundance” value [2] is reported as 0.523.

With “CGACATGTCCCGCTTCTTTCATTAATCTGTTAGCAACTGTTCTGCTATATACATTTACCTTTTAAGAGGAGGAAT” the “cleaved RNA product abundance” value [1] was 0.368.

In the case of “ACAGACGAAGGAGCCGCAAAGAAGGTATTAAGGAATGAATAATCCCTCAATATAAATATCTCTCACTTATTTAAA”, the “cleaved RNA product abundance” value [3] is reported as 0.145 and the “cleaved RNA product abundance” value [2] is reported as 0.194.

“ACAGACGAAGGAGCCGCAAAGAAGTTATTACAGGATGAATAATCCCTCAATATAAATATCTCTCACTTATTTAAA” was tested, and the “cleaved RNA product abundance” value [2] was 0.165.

“ACAGACGAAGGAGCCGCAAAGAAGTTACTATGGGATGAATAATCCCTCAATATAAATATCTCTCACTTATTTAAA” was tested, and the “cleaved RNA product abundance” value [2] was 0.228.

With “ACAGACGAAGGAGCCGCAAAGAAGTTATTAAGGGATGAATAATCCCTCAATATAAAAATCTCTCACTTATTTAAA” the “cleaved RNA product abundance” value [3] was 0.906, the “cleaved RNA product abundance” value [2] was 0.794 and the “cleaved RNA product abundance” value [4] was 0.602.

For “ACAGACGAAGGAGCCGCAAAGAAGTTATTAAGGGATCAATAATCCCTCAATATAAATTTCTCTCACTTATTTAAA”, the “cleaved RNA product abundance” value [2] was 0.645.

With “ACAGACGAAGGAGCCGCAAAGAAGTTATTAAGGGATAAATAATCCCTCAGTATAAATATCTCTCACTTATTTAAA” the “cleaved RNA product abundance” value [2] was 0.242.
